{"source": "patent EP1105154B1", "about": "(Walter Reed Army Institute of Research, dated 2016)", "binders": {"B1": {"name": "Staphylococcal enterotoxin A (SEA), wild type (ligand)", "chain": "SEKSEEINEKDLRKKSELQGTALGNLKQIYYYNEKAKTENKESHDQFLQHTILFKGFFTDHSWYNDLLVDFDSKDIVDKYKGKKVDLYGAYYGYQCAGGTPNKTACMYGGVTLHDNNRLTEEKKVPINLWLDGKQNTVPLETVKTNKKNVTVQELDLQARRYLQEKYNLYNSDVFDGKVQRGLIVFHTSTEPSVNYDLFGAQGQYSNTLLRIYRDNKTINSENMHIDIYLYTS"}}, "biological_target": "T1, HLA-DR1 (DR1αβ; DRA and DRB1*0101) on cells (human)", "T1 construct": "whole, on cells", "assay": "flow cytometry on human MHC class II expressing cells"}
{"binder": "B1", "values": [{"measurement": "binding result", "value": "binds"}]}
